US20130129722A1
Residue numbers refer to the chain shown, from its start. Blank lines part the entries; values can stand above or below the molecule they belong to.

Tests used:
[1] = target: Monkey Ang-2FD-hFc (monkey (Macca fascicularis)); assay: ELISA; 16.67 nM antibody premixed with Ang-2FD-hFc, binding to coated hTie-2-mFc
[2] = target: Human Ang-2FD-hFc (human); assay: as above
[3] = target: Mouse Ang-2FD-hFc (mouse (Mus musculus)); assay: as above
[4] = target: Dimeric Mouse Ang-2FD conjugated to human IgG1 (mouse (Mus musculus)); assay: ELISA, 16.67 nM antibody, Ang-2FD-hFc binding to coated hTie-2-mFc
Dimeric Mouse Ang-2FD conjugated to human IgG1 (mouse (Mus musculus)), sequence (chain, as listed by the source limits assumed): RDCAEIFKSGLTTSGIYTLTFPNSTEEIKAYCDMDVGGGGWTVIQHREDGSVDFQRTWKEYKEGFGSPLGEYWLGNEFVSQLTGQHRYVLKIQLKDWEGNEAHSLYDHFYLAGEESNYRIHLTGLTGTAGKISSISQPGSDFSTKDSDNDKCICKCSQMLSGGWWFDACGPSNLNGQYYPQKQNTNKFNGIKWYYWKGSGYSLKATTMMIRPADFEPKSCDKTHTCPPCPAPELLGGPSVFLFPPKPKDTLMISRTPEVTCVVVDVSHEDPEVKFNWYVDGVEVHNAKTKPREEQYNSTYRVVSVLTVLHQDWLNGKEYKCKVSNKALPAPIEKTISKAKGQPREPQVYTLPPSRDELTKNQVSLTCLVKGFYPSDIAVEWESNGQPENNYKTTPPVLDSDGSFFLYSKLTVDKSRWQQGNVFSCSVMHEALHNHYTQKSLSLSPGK

[5] = target: Dimeric Monkey Ang-2FD conjugated to human IgG1 (monkey (Macca fascicularis)); assay: as above
Dimeric Monkey Ang-2FD conjugated to human IgG1 (monkey (Macca fascicularis)), sequence (chain, as listed by the source limits assumed): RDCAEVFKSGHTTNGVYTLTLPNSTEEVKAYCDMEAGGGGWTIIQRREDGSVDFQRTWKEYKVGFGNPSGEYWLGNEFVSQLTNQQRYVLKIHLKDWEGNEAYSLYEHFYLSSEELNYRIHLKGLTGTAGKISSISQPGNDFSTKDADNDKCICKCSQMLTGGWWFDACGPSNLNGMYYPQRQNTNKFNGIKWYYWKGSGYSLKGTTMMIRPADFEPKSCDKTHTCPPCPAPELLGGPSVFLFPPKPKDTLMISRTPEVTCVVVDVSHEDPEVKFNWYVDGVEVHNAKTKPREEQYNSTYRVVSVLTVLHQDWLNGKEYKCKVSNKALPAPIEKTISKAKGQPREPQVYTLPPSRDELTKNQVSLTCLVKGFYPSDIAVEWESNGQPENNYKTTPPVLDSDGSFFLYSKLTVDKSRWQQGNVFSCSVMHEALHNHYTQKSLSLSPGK

[6] = target: Dimeric Human Ang-2FD conjugated to human IgG1 (human); assay: as above
Dimeric Human Ang-2FD conjugated to human IgG1 (human), sequence (chain, as listed by the source limits assumed): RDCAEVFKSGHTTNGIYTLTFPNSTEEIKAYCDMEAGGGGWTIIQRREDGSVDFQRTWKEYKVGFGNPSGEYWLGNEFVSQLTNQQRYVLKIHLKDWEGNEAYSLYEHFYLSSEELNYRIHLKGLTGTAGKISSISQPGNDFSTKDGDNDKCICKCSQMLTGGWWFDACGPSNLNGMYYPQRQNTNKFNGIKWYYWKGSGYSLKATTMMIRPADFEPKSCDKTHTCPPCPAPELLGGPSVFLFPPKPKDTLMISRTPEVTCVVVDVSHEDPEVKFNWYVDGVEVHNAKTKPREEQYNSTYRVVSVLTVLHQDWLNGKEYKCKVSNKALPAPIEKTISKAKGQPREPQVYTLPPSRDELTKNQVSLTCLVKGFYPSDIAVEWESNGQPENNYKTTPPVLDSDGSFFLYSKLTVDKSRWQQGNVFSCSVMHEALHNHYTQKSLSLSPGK

[7] = target: Dimeric Mouse Ang-2FD conjugated to human IgG1 (mouse (Mus musculus)); assay: SPR, antibody captured, room temperature
[8] = target: Dimeric Monkey Ang-2FD conjugated to human IgG1 (monkey (Macca fascicularis)); assay: SPR, antibody captured, room temperature
[9] = target: Dimeric Human Ang-2FD conjugated to human IgG1 (human); assay: SPR, antibody captured, room temperature
[10] = target: Dimeric Mouse Ang-2FD conjugated to human IgG1 (mouse (Mus musculus)); assay: SPR, human IgG1 antibody captured
[11] = target: Dimeric Monkey Ang-2FD conjugated to human IgG1 (monkey (Macca fascicularis)); assay: SPR, human IgG1 antibody captured
[12] = target: Dimeric Human Ang-2FD conjugated to human IgG1 (human); assay: SPR, human IgG1 antibody captured

- Percent Blocking of Ang-2FD Binding to Tie-2 [1]: 98.5%
- Percent Blocking of Ang-2FD Binding to Tie-2 [2]: 97.3%
- Percent Blocking of Ang-2FD Binding to Tie-2 [3]: 82.2%
Molecule: Control I (Ab) (antibody)

- Percent Blocking of Ang-2FD Binding to Tie-2 [4]: 98.6%
- Percent Blocking of Ang-2FD Binding to Tie-2 [5]: 94.1%
- Percent Blocking of Ang-2FD Binding to Tie-2 [6]: 99.6%
- Kd [7]: 0.61 nM
- T1/2 [7]: 30.8 min
- Kd [8]: 6.17 nM
- T1/2 [8]: 28.5 min
- Kd [9]: 0.295 nM
- T1/2 [9]: 38 min
B5: H2M742N (antibody, V domains shown)
VH: DVQLLESGGDLVQPGGSLRLSCEASGFTFRNYVMIWVRQAPGKGLEWVSGISNSGGTTHYTDSVKGRFTISRDNSKNTLYLQINSLRAEDTAVYYCAKGYLDTSLIEGNWFDPWGQGTLVTVSS
VL: NIVMTQSPLSLPVTPGEPASISCRSSQSLLHSNGFNYLNWFLQKPGQSPQLLIYLGSNRASGVPDKFSGSGSGTDFTLNINRVEAEDVGIYFCMQTLQTPLTFGGGTKVEIK

- Percent Blocking of Ang-2FD Binding to Tie-2 [4]: 53.7%
- Percent Blocking of Ang-2FD Binding to Tie-2 [5]: 97.4%
- Percent Blocking of Ang-2FD Binding to Tie-2 [6]: 99.4%
- Kd [8]: 1.47 nM
- T1/2 [8]: 23 min
- Kd [9]: 0.362 nM
- T1/2 [9]: 32.2 min
B7: H2M750N (antibody, V domains shown)
VH: QVKLVESGGGVVQPGRSLRVSCAASGFTFSSYGMHWVRQAPGKGLEWLAIIWYDGDNKYYSDSVKGRFTISRDNSKNTLYLQMNSLRAEDTAEYYCVRDASIASRFLDYWGQGTLVTVSS
VL: DIQMTQSPSSLSASIGDRVTITCRATQDINNYLAWFQQKPGKAPKSLIYATSNLQSGVPSKFSGSGSGTDYTLTISSLQPEDFSTYYCQQYHSYPLTFGGGTKVEIK

- Percent Blocking of Ang-2FD Binding to Tie-2 [4]: 55%
- Percent Blocking of Ang-2FD Binding to Tie-2 [5]: 97.3%
- Percent Blocking of Ang-2FD Binding to Tie-2 [6]: 98.9%
- Kd [8]: 0.842 nM
- T1/2 [8]: 36.6 min
- Kd [9]: 0.21 nM
- T1/2 [9]: 47 min
B10: H2M730N (antibody, V domains shown)
VH: EVQLVESGGGLVQPGGSLRLSCAASGFAFRSYWMTWVRQAPGKGLEWVANIQQDGNDKYYVDSVKGRFTISRDNAKNSLYLQMNSLRAEDTAVYYCARDTGIAEAGPFDYWGQGTLVTVSS
VL: DIQMTQSPSTLSASVGDRVSITCRASQTIISWLAWYQQKPGKAPRLLIYKASSLESGVPSRFSGSGSGTEFTLTINSLQPDDFATYYCQQYNRYWTFGQGTKVEIK

- Percent Blocking of Ang-2FD Binding to Tie-2 [4]: 98.4%
- Percent Blocking of Ang-2FD Binding to Tie-2 [5]: 95.1%
- Percent Blocking of Ang-2FD Binding to Tie-2 [6]: 99.6%
- Kd [7]: 0.882 nM
- T1/2 [7]: 195 min
- Kd [8]: 0.234 nM
- T1/2 [8]: 169 min
- Kd [9]: 0.154 nM
- T1/2 [9]: 167 min
B14: H2M743N (antibody, V domains shown)
VH: EVQLLESGGGLVQPGGSLRLSCAASGFTFRKYAMSWVRQAPGKGLEWVSVISVSGGNTYYADSVKGRFTISRDNSKNTLYLQLNSLRAEDTAVYYCAKDLTDIVLMVYVDYWGQGTLVTVSS
VL: DIQMTQSPSSVSASVGDRVTITCRASQDIDRWLAWYQQKPGKAPKLLIYAASSLQSGVPSRFSGSGSGTDFTLTISTLQPEDFATYYCQQANSLPFTFGGGTKVEIK

Second part, the molecule before the results:

B1: H1M724N (antibody, V domains shown)
VH: QVQLVESGGGVVQPGRSLRLSCAASGFTLSNYGMHWVRQAPGKGLEWVAVIWHDGSNTYYADSVKGRFTISRDNSKNTLYLQMNSLRAEDTAVYYCTREGLDFWSGYYPNWFDPWGQGTLVTVSS
VL: DIQMTQSPSSLSASVGDRVTITCRASQGIRNDLGWYQQKPGKAPKRLIYAASNLQGGVPSRFSGSGSGTEFTLTISSLQPEDFAAYYCLQHNIYPLTFGGGTKVEIK
- Percent Blocking of Ang-2FD Binding to Tie-2 [4]: 96.6%
- Percent Blocking of Ang-2FD Binding to Tie-2 [5]: 95.2%
- Percent Blocking of Ang-2FD Binding to Tie-2 [6]: 99.5%
- Kd [7]: 0.694 nM
- T1/2 [7]: 16 min
- Kd [8]: 0.73 nM
- T1/2 [8]: 25.7 min
- Kd [9]: 0.179 nM
- T1/2 [9]: 42.7 min

B2: H1H732N (antibody, V domains shown)
VH: EVQLVESGGGLVRPGGSLRLSCAASGFTFTNAWMSWVRQAPGKGLEWIGQIKSKTDGGTIDYAAPVKGRFTVSRDDSENTLFLQMNSLKTEDTAVYYCAGNWNYVDFDYWGQGTLVTVSS
VL: B1 VL with G28D, N53S, A85T, I93S, L96F, G100P, E105D
- Kd [10]: 0.529 nM
- T1/2 [10]: 51 min
- Kd [11]: 0.439 nM
- T1/2 [11]: 118 min
- Kd [12]: 0.386 nM
- T1/2 [12]: 57 min

B3: H1M732N (antibody, V domains shown)
VH: B2 VH
VL: B1 VL with G28D, N53S, A85T, I93S, L96F, G100P, E105D
- Percent Blocking of Ang-2FD Binding to Tie-2 [4]: 90.9%
- Percent Blocking of Ang-2FD Binding to Tie-2 [5]: 95.8%
- Percent Blocking of Ang-2FD Binding to Tie-2 [6]: 97.7%
- Kd [7]: 1.7 nM
- T1/2 [7]: 21.4 min
- Kd [8]: 7.33 nM
- T1/2 [8]: 24.1 min
- Kd [9]: 0.484 nM
- T1/2 [9]: 35.5 min

B4: H1H742N (antibody, V domains shown)
VH: B5 VH
VL: B5 VL
- Kd [10]: 0.276 nM
- T1/2 [10]: 58 min
- Kd [11]: 0.683 nM
- T1/2 [11]: 93 min
- Kd [12]: 0.186 nM
- T1/2 [12]: 65 min

B6: H1H750N (antibody, V domains shown)
VH: B7 VH
VL: B7 VL
- Kd [10]: 0.218 nM
- T1/2 [10]: 121 min
- Kd [11]: 0.199 nM
- T1/2 [11]: 244 min
- Kd [12]: 0.164 nM
- T1/2 [12]: 127 min

B8: H1M728N (antibody, V domains shown)
VH: EVQLVESGGDLVQPGGSLRLSCTASGFTFSKYWMTWVRQAPGRGLEWVANIKEDGNEKYFLDSVKGRFTISRDNAKDLLFLQMNSLRGEDTAVYYCVRDRGIEVAGPFDYWGQGTLVTVSS
VL: B10 VL with S20T, I21V, S31N, R45K, Y49S, N76S, K102M
- Percent Blocking of Ang-2FD Binding to Tie-2 [4]: 83.9%
- Percent Blocking of Ang-2FD Binding to Tie-2 [5]: 97.1%
- Percent Blocking of Ang-2FD Binding to Tie-2 [6]: 98.5%
- Kd [7]: 5.65 nM
- T1/2 [7]: 9.9 min
- Kd [8]: 1.58 nM
- T1/2 [8]: 69.5 min
- Kd [9]: 0.137 nM
- T1/2 [9]: 58.4 min

B9: H1H728N (antibody, V domains shown)
VH: B8 VH
VL: B10 VL with S20T, I21V, S31N, R45K, Y49S, N76S, K102M
- Kd [10]: 5.76 nM
- T1/2 [10]: 20 min
- Kd [11]: 2 nM
- T1/2 [11]: 77 min
- Kd [12]: 0.162 nM
- T1/2 [12]: 81 min

B11: H1H730N (antibody, V domains shown)
VH: B10 VH
VL: B10 VL
- Kd [10]: 0.0971 nM
- T1/2 [10]: 90 min
- Kd [11]: 3.4 nM
- T1/2 [11]: 87 min
- Kd [12]: 0.234 nM
- T1/2 [12]: 62 min

B12: H1H743N (antibody, V domains shown)
VH: B14 VH
VL: B14 VL
- Kd [10]: 0.124 nM
- T1/2 [10]: 233 min
- Kd [11]: 0.0965 nM
- T1/2 [11]: 780 min
- Kd [12]: 0.0882 nM
- T1/2 [12]: 254 min

B13: H1H693P (antibody, human IgG1, V domains shown)
VH: EVQLVESGGGLVQPGESLRLSCAASGFTFSSYAMSWVRQGPGKGLEWVSSISGSGGTTYYADSVEGRFTISRDNSKNTLYLHMNSLRAEDTAVYYCAKDFLDYSTYLAFDLWGQGTMVTVSS
VL: B14 VL with D28G, D30S, R31S, T77S, L94F, F96R, G100Q
- Kd [10]: 0.446 nM
- T1/2 [10]: 63.7 min
- Kd [11]: 1.17 nM
- T1/2 [11]: 17.6 min
- Kd [12]: 0.5 nM
- T1/2 [12]: 37.1 min
- Percent Blocking of Ang-2FD Binding to Tie-2 [2]: 73.9%
- Percent Blocking of Ang-2FD Binding to Tie-2 [3]: 63.6%
